From patent US20180002415A1 (Chugai, published 2018) come the findings set out here.

Residue numbers refer to the chain shown, from its start.

A word on the koff: it is the rate constant with which the complex falls apart. A word on the kon: it is a measure of how fast the partners come together. In general, Kd refers to the equilibrium constant for the complex coming apart.

In experiment [1] the target is T1, recombinant human C5 (human, UniProt P01031 20-1676).
T1 construct: Also used for the C5 of normal human serum in the functional rows; also called hC5; rhC5
In words: SPR (Biacore), 37C, association and dissociation at pH 7.4, Ab on ProA/G. A general note: SPR reads the build-up and loss of mass on a sensor chip optically.
Method: (§1) The kinetic parameters of anti-C5 antibodies against recombinant human C5 were assessed at 37° C. using BIACORE® T200 instrument (GE Healthcare) at three different conditions; (1) both association and dissociation were at pH7.4, (2) both association and dissociation were at pH5.8, and (3) association was at pH7.4 but dissociation was at pH5.8. ProA/G (Pierce) was immobilized onto a CM1 sensorchip using amine coupling kit (GE Healthcare) according to the recommended settings by GE Healthcare. Antibodies and analytes for condition (1) and (3) were diluted in ACES pH7.4 buffer (20 mM ACES, 150 mM NaCl, 1.2 mM CaCl₂, 0.05% Tween 20, 0.005% NaN₃) and for condition (2) they were diluted in ACES pH5.8 buffer (20 mM ACES, 150 mM NaCl, 1.2 mM CaCl₂, 0.05% Tween 20, 0.005% NaN₃). […] The surface was regenerated using 25 mM NaOH. Kinetic parameters at condition (1) and (2) were determined by fitting the sensorgrams with a 1:1 binding model and the dissociation rate at condition (3) was determined by fitting the sensorgrams with a 1:1 dissociation for MCK model using BIACORE® T200 Evaluation software, version 2.0 (GE Healthcare). pH dependency of all antibodies were shown as ratio of dissociation rate of condition (2) and (1).

The target of experiment [2] is T1, recombinant human C5. In words: SPR (Biacore), ratio of dissociation rates of conditions (2) and (1).
Method: as §1
The target of experiment [3] is T1, recombinant human C5. In words: SPR (Biacore), 37C, association at pH 7.4, dissociation at pH 5.8.
Method: as §1
Experiment [4] deals with T1, recombinant human C5. In words: SPR (Biacore), 37C, association and dissociation at pH 5.8, Ab on ProA/G.
Method: as §1
For experiment [5], the target named is T2, recombinant cynomolgus monkey C5 (cynomolgus monkey, UniProt P01031 20-1676 (human entry), limits assumed).
T2 construct: also called cynoC5
T2 chain: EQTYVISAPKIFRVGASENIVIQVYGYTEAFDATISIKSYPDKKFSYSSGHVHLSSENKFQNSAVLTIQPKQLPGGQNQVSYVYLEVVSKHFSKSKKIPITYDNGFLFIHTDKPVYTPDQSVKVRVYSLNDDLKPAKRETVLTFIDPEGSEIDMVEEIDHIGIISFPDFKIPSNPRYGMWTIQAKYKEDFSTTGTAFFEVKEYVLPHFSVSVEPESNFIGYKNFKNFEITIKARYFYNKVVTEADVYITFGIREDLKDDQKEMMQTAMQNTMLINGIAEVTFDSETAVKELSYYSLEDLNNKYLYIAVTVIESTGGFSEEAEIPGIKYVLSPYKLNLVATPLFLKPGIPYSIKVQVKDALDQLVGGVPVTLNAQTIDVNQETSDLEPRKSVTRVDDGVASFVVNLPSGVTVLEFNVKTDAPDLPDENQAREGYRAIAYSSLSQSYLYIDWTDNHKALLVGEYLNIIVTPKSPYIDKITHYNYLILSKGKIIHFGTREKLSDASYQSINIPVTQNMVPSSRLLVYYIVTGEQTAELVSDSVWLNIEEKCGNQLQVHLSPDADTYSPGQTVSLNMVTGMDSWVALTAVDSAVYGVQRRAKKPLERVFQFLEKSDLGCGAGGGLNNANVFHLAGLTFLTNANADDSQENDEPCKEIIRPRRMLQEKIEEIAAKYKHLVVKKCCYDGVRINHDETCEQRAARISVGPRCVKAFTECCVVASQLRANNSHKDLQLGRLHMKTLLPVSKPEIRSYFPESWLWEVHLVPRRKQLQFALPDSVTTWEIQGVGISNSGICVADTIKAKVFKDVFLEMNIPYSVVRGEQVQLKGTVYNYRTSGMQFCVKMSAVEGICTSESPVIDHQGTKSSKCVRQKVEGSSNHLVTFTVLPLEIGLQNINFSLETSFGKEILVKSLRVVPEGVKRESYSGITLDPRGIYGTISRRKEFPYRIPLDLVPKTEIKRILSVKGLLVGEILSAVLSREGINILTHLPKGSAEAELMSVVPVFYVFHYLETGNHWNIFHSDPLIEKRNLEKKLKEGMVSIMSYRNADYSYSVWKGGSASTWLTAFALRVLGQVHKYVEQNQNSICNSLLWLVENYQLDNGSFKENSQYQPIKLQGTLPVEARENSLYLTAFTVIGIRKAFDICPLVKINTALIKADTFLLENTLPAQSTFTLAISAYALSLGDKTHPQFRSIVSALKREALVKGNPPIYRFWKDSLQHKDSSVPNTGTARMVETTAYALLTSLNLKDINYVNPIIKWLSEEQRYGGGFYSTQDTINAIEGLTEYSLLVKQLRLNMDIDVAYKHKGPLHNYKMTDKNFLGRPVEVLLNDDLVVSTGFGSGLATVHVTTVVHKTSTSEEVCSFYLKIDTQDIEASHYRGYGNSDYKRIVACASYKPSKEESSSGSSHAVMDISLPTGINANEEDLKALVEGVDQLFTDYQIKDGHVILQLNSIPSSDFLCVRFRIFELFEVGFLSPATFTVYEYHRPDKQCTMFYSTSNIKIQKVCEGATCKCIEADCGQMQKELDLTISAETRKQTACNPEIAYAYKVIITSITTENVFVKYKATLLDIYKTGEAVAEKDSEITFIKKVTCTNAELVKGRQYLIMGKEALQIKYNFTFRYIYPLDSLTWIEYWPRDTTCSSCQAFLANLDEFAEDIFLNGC
In words: SPR (Biacore), 37C, pH 7.4, Ab captured on ProA/G.

The next experiment addresses T3, 481-660.
T3 construct: Expressed in E. coli
T3 GST fusion polypeptide: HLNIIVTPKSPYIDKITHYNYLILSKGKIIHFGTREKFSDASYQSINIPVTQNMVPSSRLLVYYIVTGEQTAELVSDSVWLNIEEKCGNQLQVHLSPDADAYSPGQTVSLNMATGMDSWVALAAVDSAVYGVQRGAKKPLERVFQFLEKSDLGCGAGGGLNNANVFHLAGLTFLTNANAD
In words: summary drawing of the binding reactions to C5 beta-chain fragments.

For experiment [6], the target named is T4, C5 peptide 33-111 fused to GST-tag (human, UniProt P01031 33-111).
T4 construct: not shown: GST-tag (glutathione S-transferase); vector and linker not restated
T4 sequence (P01031 33-111): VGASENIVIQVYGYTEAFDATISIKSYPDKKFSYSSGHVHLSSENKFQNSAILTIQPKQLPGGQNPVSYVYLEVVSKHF
The experiment is described as above.

Experiment [7] concerns the target T5, C5 peptide 33-108 fused to GST-tag (human, UniProt P01031 33-108).
T5 construct: not shown: GST-tag (glutathione S-transferase); vector and linker not restated
The description is as above.

The target of experiment [8] is T6, C5 peptide 45-111 fused to GST-tag (human, UniProt P01031 45-111).
T6 construct: not shown: GST-tag (glutathione S-transferase); vector and linker not restated
T6 sequence (P01031 45-111): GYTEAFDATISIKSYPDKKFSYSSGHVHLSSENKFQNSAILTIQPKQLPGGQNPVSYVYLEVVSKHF
The description is as above.

For experiment [9], the target named is T7, C5 peptide 45-124 fused to GST-tag (human, UniProt P01031 45-124).
T7 construct: not shown: GST-tag (glutathione S-transferase); vector and linker not restated
T7 sequence (P01031 45-124): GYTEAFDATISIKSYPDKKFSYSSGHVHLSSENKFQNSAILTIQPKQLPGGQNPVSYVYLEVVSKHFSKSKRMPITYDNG
Described as above.

In experiment [10] the target is T8, C5 peptide 52-124 fused to GST-tag (human, UniProt P01031 52-124).
T8 construct: not shown: GST-tag (glutathione S-transferase); vector and linker not restated
T8 sequence (P01031 52-124): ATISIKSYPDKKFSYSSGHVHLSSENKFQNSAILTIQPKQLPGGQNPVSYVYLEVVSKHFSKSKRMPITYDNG
Described as above.

The next experiment concerns the target T9, 321-500.
T9 construct: Expressed in E. coli
T9 GST fusion polypeptide: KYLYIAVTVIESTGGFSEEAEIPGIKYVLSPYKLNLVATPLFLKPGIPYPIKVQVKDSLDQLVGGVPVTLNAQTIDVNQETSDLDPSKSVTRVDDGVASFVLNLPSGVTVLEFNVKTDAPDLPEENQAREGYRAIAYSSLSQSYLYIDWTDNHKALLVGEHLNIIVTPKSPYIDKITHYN
In words: Western blot of E. coli lysates expressing GST-fused C5 beta-chain fragments.

Another experiment has as its target T10, 161-340.
T10 construct: Expressed in E. coli
T10 GST fusion polypeptide: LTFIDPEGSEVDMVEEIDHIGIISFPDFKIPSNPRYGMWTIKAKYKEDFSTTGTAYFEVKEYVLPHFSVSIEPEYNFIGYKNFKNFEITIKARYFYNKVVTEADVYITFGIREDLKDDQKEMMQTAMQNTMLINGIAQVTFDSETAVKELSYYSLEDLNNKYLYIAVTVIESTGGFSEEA
The description is as above.

T5 sequence (P01031 33-108): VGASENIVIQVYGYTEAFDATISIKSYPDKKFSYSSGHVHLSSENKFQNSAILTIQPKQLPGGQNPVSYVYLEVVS
Method for 161-340: (§2) Anti-C5 monoclonal antibodies (MAbs) were tested for binding to C5 β-chain-derived peptides in Western blot analysis. […] The E. coli samples were harvested after incubation with 1 mM Isopropyl β-D-1-thiogalactopyranoside (IPTG) for 5 hours at 37° C., and centrifuged at 20000×g for 1 min to obtain pellets.
Method for 321-500: as §2

B1: 305LO16-SG422 (antibody, human IgG4, V domains shown)
VH: QVQLVESGGGLVQPGRSLRLSCAASGFTVHSSYYMAWVRQAPGKGLEWVGAIFTGSGAEYKAEWVKGRFTISRDNSKNTLYLQMNSLRAEDTAVYYCASDAGYDYPTHAMHYWGRGTLVTVSS
VL: DIQMTQSPSSLSASVGDRVTITCRASQGISSSLAWYQQKPGKAPKLLIYGASETESGVPSRFSGSGSGTDFTLTISSLQPEDFATYYCQNTKVGSSYGNTFGGGTKVEIKR
notes: Modified human IgG4 CH SG422, human CL SK1
As for B1, the koff with recombinant human C5 [1] is 0.000412 s⁻¹; in the experiment with recombinant human C5 [3] it was 0.0161 s⁻¹; with recombinant human C5 [4], 0.00869 s⁻¹. Also, the results for the association rate constant (kon) with recombinant human C5 [1] and in the experiment with recombinant human C5 [4] were 1.28e+06 M⁻¹ s⁻¹ and 109000 M⁻¹ s⁻¹, respectively. Also, the “pH dependency (kd pH 5.8 / kd pH 7.4)” value with recombinant human C5 [2] is 21.1 fold.

B2: 305LO20-SG115 (antibody, human IgG1)
heavy: QVQLVESGGGLVQPGGSLRLSCAASGFTVHSSYYMAWVRQAPGKGLEWVGAIFTGSGAEYKAEWAKGRVTISKDTSKNQVVLTMTNMDPVDTATYYCASDAGYDYPTHAMHYWGQGTLVTVSSASTKGPSVFPLAPSSKSTSGGTAALGCLVKDYFPEPVTVSWNSGALTSGVHTFPAVLQSSGLYSLSSVVTVPSSSLGTQTYICNVNHKPSNTKVDKKVEPKSCDKTHTCPPCPAPELRRGPKVFLFPPKPKDTLMISRTPEVTCVVVDVSHEDPEVKFNWYVDGVEVHNAKTKPREEQYNSTYRVVSVLTVLHQDWLNGKEYKCKVSNKGLPSSIEKTISKAKGQPREPQVYTLPPSREEMTKNQVSLTCLVKGFYPSDIAVEWESNGQPENNYKTTPPVLDSDGSFFLYSKLTVDKSRWQQGNVFSCSVLHEALHAHYTRKELSLSP
light: DIQMTQSPSSLSASVGDRVTITCRASQGISSSLAWYQQKPGQAPRLLIYGASETESGVPSRFSGSGSGTDFTLTISSLQPEDFATYYCQNTKVGSSYGNTFGGGTKVEIKRTVAAPSVFIFPPSDEQLKSGTASVVCLLNNFYPREAKVQWKVDNALQSGNSQESVTEQDSKDSTYSLSSTLTLSKADYEKHKVYACEVTHQGLSSPVTKSFNRGEC
notes: Modified human IgG1 CH SG115, human CL SK1
B2: the koff with recombinant human C5 [1] was 0.000467 s⁻¹; with recombinant human C5 [3] it was 0.0161 s⁻¹; with recombinant human C5 [4], 0.00818 s⁻¹. Moreover, the values for the kon with recombinant human C5 [1] and in the experiment with recombinant human C5 [4] were 1.44e+06 M⁻¹ s⁻¹ and 141000 M⁻¹ s⁻¹, respectively. Also, the “pH dependency (kd pH 5.8 / kd pH 7.4)” value with recombinant human C5 [2] was 17.5 fold.

B3: 305LO20-SG422 (antibody, human IgG4)
heavy: QVQLVESGGGLVQPGGSLRLSCAASGFTVHSSYYMAWVRQAPGKGLEWVGAIFTGSGAEYKAEWAKGRVTISKDTSKNQVVLTMTNMDPVDTATYYCASDAGYDYPTHAMHYWGQGTLVTVSSASTKGPSVFPLAPCSRSTSGGTAALGCLVKDYFPEPVTVSWNSGALTSGVHTFPAVLQSSGLYSLSSVVTVPSSSLGTKTYTCNVDHKPSNTKVDKRVESKYGPPCPPCPAPEFRRGPKVFLFPPKPKDTLMISRTPEVTCVVVDVSHEDPEVKFNWYVDGVEVHNAKTKPREEQYNSTYRVVSVLTVLHQDWLNGKEYKCKVSNKGLPSSIEKTISKAKGQPREPQVYTLPPSREEMTKNQVSLTCLVKGFYPSDIAVEWESNGQPENNYKTTPPVLDSDGSFFLYSKLTVDKSRWQQGNVFSCSVLHEALHAHYTRKELSLSP
light: B2 light
notes: as for B1
In the case of B3, the koff stood at 0.00047 s⁻¹ with recombinant human C5 [1], 0.0155 s⁻¹ in the experiment with recombinant human C5 [3] and 0.00815 s⁻¹ in the experiment with recombinant human C5 [4]. The on-rate (kon) in the experiment with recombinant human C5 [1] worked out at 1.35e+06 M⁻¹ s⁻¹; with recombinant human C5 [4], 136000 M⁻¹ s⁻¹. Moreover, the “pH dependency (kd pH 5.8 / kd pH 7.4)” value with recombinant human C5 [2] amounted to 17.3 fold.

B4: 305LO23-SG115 (antibody, human IgG1, V domains shown)
VH: QVQLVESGGGLVQPGGSLRLSCAASGFTVHSSYYMAWVRQAPGKGLEWVSGIFTGSGATYKAEWAKGRVTISKDTSKNQVVLTMTNMDPVDTATYYCASDAGYDYPTHAMHYWGQGTLVTVSS
VL: B1 VL with K42Q, K45R, E53T, E55Q
notes: as for B2
In the case of B4, the off-rate constant (koff) with recombinant human C5 [1] was determined as 0.000423 s⁻¹; with recombinant human C5 [3] it was 0.0173 s⁻¹; with recombinant human C5 [4], 0.00855 s⁻¹. In addition, the on-rate (kon) with recombinant human C5 [1] stood at 1.53e+06 M⁻¹ s⁻¹; in the experiment with recombinant human C5 [4], 133000 M⁻¹ s⁻¹. The “pH dependency (kd pH 5.8 / kd pH 7.4)” value with recombinant human C5 [2] came out at 20.2 fold.

B5: CFA0675 (antibody, V domains shown)
VH: QSVEESGGRLVTPGTPLTLTCTVSGFSLSTYAMGWVRQAPGKGLEWIGTIDTGDNSFYANWAKGRFTISRTSTTVDLKITSPTAEDTATYFCARNDGSVYNLFNLWGPGTLVTVSS
VL: DVVMTQTPASVSAAVGGTVTIKCQASENIYSALSWYQQKPGLRPRLLIYYASTLASGVPSRFKGSRSGTEFTLTISDLECADAASYYCQQYYDINSVDNTFGGGTKVVVE
notes: Chimeric, rabbit V regions; also called CFA0675-F760G4
Turning to B5, in experiment [5], the Kd came out at 1.29 nM. Moreover, the binding result (with 481-660; in experiment [6]; in experiment [7]; in experiment [8]; in experiment [9]; in experiment [10]) was “no binding” throughout. The binding result in the experiment with 321-500 and with 161-340 was “no binding” each time.
